In publication doi:10.1101/2025.08.07.669152 (bioRxiv, 2025):

target: WT RBD of SARS-CoV-2 (S protein residues 319–539) (SARS-CoV-2, wild type (GenBank …, UniProt P0DTC2)); test: ELISA

Binder | binding result
Nb 2-38 (VHH) VHH: QVQLVESGGGLVQAGGSLRLSCAAAARFSTSAMGWFRQAPGKEREFVAAISWSNTNTHYADTVKGRFTISADTAKETVDLQMNSLKPEDTAVYYCVQGGWGIRQPIIVDYWGKGTQVTVSS | binds
Nb 1-22 (VHH) VHH: HVQLVESGGGLVQPGGSLRLSCAASGRSFNSYLMGWFRQAPGKEREFVAWISGSPHDIIRYRDSVKDRFTISRDNAKNTVYLQMNSLKPVDTAVYYCAVGSLRVGSFSPDYWGQGTQVTVSS | binds
Nb 2-45 (VHH) VHH: QVQLVESGGGLVQAGGSLRLSCTASGYDFSILAIAWYRQAPGKERELVAAISRVGSTDYADSVKGRFTISRDNTKNTVSLQMDSLKPEDTAVYYCNAGIPMTTVLSGLGFWGQGTQVTVSS | binds
Nb 2-31 (VHH) VHH: QVQLVESGGGLVQAGESLRLSCAASKPTFRNFAAGWFRQTPGKDREFVAVIEYDGDSAYYADSVKGRFTISRDNAKNTVYLQMNRLKPGDTAVYICAIGGNHYDPSKYYTADEYDYWGQGTQVTVSS | binds
